target: T1, rat GLP-1 receptor (Rattus norvegicus, UniProt P32301); test: Displacement of 125I-GLP-1 binding to COS cells transfected with the rat GLP-1 receptor cDNA; details: 20 pM 125I-GLP-1, increasing concentrations of cold peptide
T1 construct: expressed in transfected cells; host or cells: COS cells
T1 sequence (P32301 22-463): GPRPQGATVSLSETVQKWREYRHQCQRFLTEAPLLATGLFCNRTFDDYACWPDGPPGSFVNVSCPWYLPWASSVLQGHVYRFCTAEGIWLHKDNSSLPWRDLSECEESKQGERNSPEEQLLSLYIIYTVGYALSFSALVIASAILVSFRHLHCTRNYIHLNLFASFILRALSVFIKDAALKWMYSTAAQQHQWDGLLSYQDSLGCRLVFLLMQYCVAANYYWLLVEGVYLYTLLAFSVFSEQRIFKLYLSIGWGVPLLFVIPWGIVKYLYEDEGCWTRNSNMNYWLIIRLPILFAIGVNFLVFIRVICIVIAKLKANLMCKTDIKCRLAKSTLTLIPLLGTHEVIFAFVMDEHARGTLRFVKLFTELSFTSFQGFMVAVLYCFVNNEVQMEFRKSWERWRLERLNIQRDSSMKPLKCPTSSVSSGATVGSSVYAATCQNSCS

Displacement of GLP-1 binding (in words), did not displace binding:
gastric inhibitory peptide [GIP], secreting: peptide hormone of related structure (probably secretin), vasoactive intestinal peptide [VIP]
